These are literature values, as cited in article PMC3020241.

The target of this data set is arrestin-1 (dimer) (Mus musculus) (UniProt P20443).

The Kd is a measure of binding affinity in units of concentration. Take arrestin-1 (from UniProt P20443): the Kd was 57.5 µM.
